The values below come from the Human Domainome abundance scans (Beltran et al. 2025).

± gives the uncertainty stated by the source.

B1: Intersectin-1, residues 1156 to 1213; numbered along this chain, Q15811 (parent)
chain: AVCQVIGMYDYTAQNDDELAFNKGQIINVLNKEDPDWWKGEVNGQVGLFPSNYVKLTT

In this data set the parent is B1. The experiment in a line: abundance fitness (aPCA) (normalised: wild type 0, dead -1); higher = more abundant; growth selection in yeast, the domain comes from the species named. The note with it: Homo sapiens.
Consider N15H, for which the abundance fitness is -0.433 ± 0.16. To N15I belongs -0.664 ± 0.25; to T57V, -0.06 ± 0.089; to T57F, 0.086 ± 0.15. L19H: the abundance fitness is -0.858 ± 0.26. In the case of L19D, the abundance fitness is -0.776 ± 0.21.

As for L19V, the abundance fitness was -0.281 ± 0.098. Consider T12M, for which the abundance fitness is -0.168 ± 0.14. Take T12C: the abundance fitness was -0.464 ± 0.16. The figure for T12G is -0.424 ± 0.086. The figure for T12F is -0.39 ± 0.19; for T12W it is -0.629 ± 0.16. Consider T12H, for which the abundance fitness is -0.108 ± 0.19. To L30C belongs -0.867 ± 0.24. In the case of T58I, the abundance fitness was -0.587 ± 0.4. With T58A, the abundance fitness is -0.315 ± 0.16.

For the variant T58R, the abundance fitness turned out to be 0.062 ± 0.26. Regarding A20R, the abundance fitness was -0.292 ± 0.078. A20I: the abundance fitness was -0.793 ± 0.26. The figure for A20Y is -0.662 ± 0.28; for A20S it is -0.079 ± 0.088; for A20C it is -0.152 ± 0.11. The figure for A20Q is 0.092 ± 0.12; for N31D it is 0.223 ± 0.16; for N31L it is -0.631 ± 0.12. Turning to G24D, the abundance fitness is -0.579 ± 0.18. The figure for G24S is -0.524 ± 0.099. To G24K belongs -0.571 ± 0.17. As to E41P, the abundance fitness is -1 ± 0.21. The figure for E41V is -0.681 ± 0.12; for E41F it is -1.22 ± 0.3; for E41Q it is -0.863 ± 0.24.

Take I26D: the abundance fitness was -0.807 ± 0.22.

Regarding I26C, the abundance fitness was -0.149 ± 0.17. As to I26A, the abundance fitness was -0.237 ± 0.13. The figure for I26L is 0.18 ± 0.12; for I26E it is -0.278 ± 0.16; for L48F it is 0.146 ± 0.13.

L48M: the abundance fitness is -0.111 ± 0.12. The figure for L48T is -0.184 ± 0.12; for L48Q it is -0.479 ± 0.15; for L48G it is -0.544 ± 0.085. As for Y11K, the abundance fitness is -0.879 ± 0.23.

Consider Y11G, for which the abundance fitness is -0.655 ± 0.097. Y11R: the abundance fitness was -0.374 ± 0.084. For the variant Y11I, the abundance fitness is -0.563 ± 0.2. With Q14V, the abundance fitness was -0.263 ± 0.12.

For the variant Q14T, the abundance fitness was -0.255 ± 0.11. D34W: the abundance fitness was -0.894 ± 0.19. The figure for D34A is -0.385 ± 0.12. For the variant D34N, the abundance fitness was -0.348 ± 0.17. Consider D34F, for which the abundance fitness was -0.554 ± 0.19.

D34T: the abundance fitness was -0.383 ± 0.17. D10H: the abundance fitness was -0.262 ± 0.31. Consider D10Q, for which the abundance fitness was -0.625 ± 0.23.

As to K23E, the abundance fitness was -0.011 ± 0.11. In the case of K23A, the abundance fitness turned out to be 0.215 ± 0.097. For K23P, the abundance fitness was -0.921 ± 0.21. To K23D belongs -0.859 ± 0.23; to K23M, -0.487 ± 0.17. With V42K, the abundance fitness was -0.405 ± 0.33.

Take V42A: the abundance fitness worked out at 0.041 ± 0.093. To V42M belongs -0.093 ± 0.18.

As to S51C, the abundance fitness was -0.504 ± 0.14. As for K32G, the abundance fitness was -0.527 ± 0.095. As to K32R, the abundance fitness worked out at 0.066 ± 0.089. For the variant Y53K, the abundance fitness is 0.085 ± 0.14.

Turning to Y53I, the abundance fitness is -0.239 ± 0.28. G7D: the abundance fitness was -0.721 ± 0.11. Take G7Y: the abundance fitness is -1.13 ± 0.35. To G7L belongs -0.618 ± 0.12; to G7N, -1.15 ± 0.32. Regarding V2L, the abundance fitness is -0.375 ± 0.11. Take V2W: the abundance fitness was -0.384 ± 0.19. On to V2N, for which the abundance fitness was -0.223 ± 0.29. As to V2Q, the abundance fitness is -0.466 ± 0.23. Regarding E33F, the abundance fitness was -0.61 ± 0.22. To E33W belongs -0.987 ± 0.2; to F21K, -0.527 ± 0.17; to F21T, -0.985 ± 0.2.

As to F21D, the abundance fitness was -0.656 ± 0.48. On to M8W, for which the abundance fitness was -0.3 ± 0.13.

For M8N, the abundance fitness is -0.576 ± 0.21. For Y9H, the abundance fitness was found to be 0.278 ± 0.18. In the case of Y9E, the abundance fitness stood at 0.338 ± 0.12.

On to Y9P, for which the abundance fitness is -0.835 ± 0.2. As to Y9A, the abundance fitness was found to be 0.362 ± 0.1. The figure for V46W is -0.892 ± 0.19; for N22E it is 0.174 ± 0.14. Consider N22C, for which the abundance fitness stood at 0.128 ± 0.1. Consider L56N, for which the abundance fitness is -0.149 ± 0.22. L56C: the abundance fitness is 0.266 ± 0.13.

L56M: the abundance fitness was -0.148 ± 0.12. For the variant L56T, the abundance fitness was determined as 0.081 ± 0.14.

With L56H, the abundance fitness is -0.334 ± 0.24. The figure for W38L is -0.737 ± 0.12.

As for W38D, the abundance fitness is -0.674 ± 0.2. Regarding W38Y, the abundance fitness is -0.791 ± 0.2.

W38I: the abundance fitness was -1.03 ± 0.33. For the variant W38K, the abundance fitness was -0.671 ± 0.23. With N43R, the abundance fitness is -0.436 ± 0.1. The figure for N43T is -0.85 ± 0.16; for Q45M it is -0.023 ± 0.13. Take Q45S: the abundance fitness was -0.198 ± 0.1. To Q45P belongs -0.765 ± 0.17. In the case of Q45A, the abundance fitness came out at 0.016 ± 0.09. E18L: the abundance fitness was -0.745 ± 0.14. The figure for E18P is -0.919 ± 0.23. The figure for Q4T is -0.207 ± 0.1; for Q4V it is -0.488 ± 0.13.

Turning to Q4G, the abundance fitness was -0.6 ± 0.12. D16I: the abundance fitness is -0.108 ± 0.13. To D16C belongs -0.166 ± 0.11; to D16E, 0.059 ± 0.12; to D16A, -0.232 ± 0.096. In the case of A13V, the abundance fitness is -0.832 ± 0.11.

On to A13C, for which the abundance fitness is -0.76 ± 0.21. In the case of A13W, the abundance fitness was -0.746 ± 0.14. With D17N, the abundance fitness was 0.147 ± 0.2. To D17G belongs 0.101 ± 0.072; to C3A, -0.463 ± 0.12; to C3N, -0.252 ± 0.17. On to C3D, for which the abundance fitness was -0.033 ± 0.12. To V29R belongs -0.9 ± 0.11; to V29N, -0.721 ± 0.23. Regarding V29W, the abundance fitness was -0.672 ± 0.14. As for V29L, the abundance fitness was -0.323 ± 0.099. The figure for V29E is -0.925 ± 0.19; for G44T it is -0.92 ± 0.18; for G44Q it is -0.613 ± 0.14. For the variant I6R, the abundance fitness is -0.446 ± 0.1.

I6T: the abundance fitness was -0.388 ± 0.11.

For I6C, the abundance fitness is -0.386 ± 0.13. I6V: the abundance fitness came to 0.159 ± 0.1. I27Y: the abundance fitness is -0.564 ± 0.2. Take I27N: the abundance fitness is -0.765 ± 0.28.

Take I27Q: the abundance fitness is -1.05 ± 0.23.

Regarding I27K, the abundance fitness is -0.81 ± 0.23. Take K55C: the abundance fitness is -0.098 ± 0.15. As for V5Q, the abundance fitness was -0.673 ± 0.29. Consider V5W, for which the abundance fitness is -0.574 ± 0.15. V5N: the abundance fitness was -0.902 ± 0.19. As to F49G, the abundance fitness was -0.829 ± 0.069.

Regarding F49Y, the abundance fitness is -0.782 ± 0.28. Take F49P: the abundance fitness is -0.814 ± 0.18. Consider W37E, for which the abundance fitness is -0.737 ± 0.15.

In the case of W37F, the abundance fitness is -0.307 ± 0.18. On to G47L, for which the abundance fitness was -0.881 ± 0.13.

Regarding G47F, the abundance fitness was -1.01 ± 0.24. To G47D belongs -0.833 ± 0.14; to V54A, -0.546 ± 0.11. For V54C, the abundance fitness was -0.367 ± 0.12. Regarding P50N, the abundance fitness was -0.71 ± 0.25. Regarding P50S, the abundance fitness is -0.954 ± 0.14.

For P50D, the abundance fitness was -0.507 ± 0.19.

Take P50L: the abundance fitness is -0.873 ± 0.14. As for N52M, the abundance fitness is -0.097 ± 0.14. To N52W belongs -0.446 ± 0.14. G40K: the abundance fitness is -0.848 ± 0.19. As for G40V, the abundance fitness was -0.891 ± 0.14. Turning to D36G, the abundance fitness is -0.279 ± 0.087. To D36S belongs -0.131 ± 0.096; to D36Q, -0.218 ± 0.16. On to N28I, for which the abundance fitness was -0.451 ± 0.31. For the variant N28K, the abundance fitness was -0.014 ± 0.33. For the variant N28R, the abundance fitness was -0.065 ± 0.13. Regarding N28M, the abundance fitness was -0.298 ± 0.24.
